Reference: US6221608A, “Methods for identifying erythropoietin receptor binding protein” (Ortho Pharmaceutical Corporation, priority 1997, dated 2001)
Like-named read-outs stand apart in the source and are kept apart here. Bridge positions count the residues as written; N and C are the ends. Square brackets hold non-standard residues; d marks the D form. Ends that are not written are not given here. Peptide text beside a SMILES is read from it. Tyr(3,5-Br2) = N[C@@H](Cc1cc(Br)c(O)c(Br)c1)C(=O)O

Experiments:
FDC-P1/hER cells = test: EPO dependent cell proliferation assay; assay type: cell-based, human EPO receptor; settings: for EC50 / FDCP-P1-hER ED50: amount of peptide for one half of maximal activity of recombinant EPO, 42 h + 6 h [3H]thymidine; for EC50: 2880 min, read-out: FDCP-P1-hER ED50; for EPO mimetic activity / proliferative capacity: cell proliferation, result in words
Method: At 24 hours, the cells were counted, resuspended at 800,000 cells/ml and dispensed at 40,000 cells/well. Stock solutions of the respective peptides (10 mM in DMSO) were prepared and dispensed in triplicate to final concentrations of 1×10^-10 M through 1×10^-5 M and adjusted to a final volume of 0.2 ml. […] A standard EPO dose response curve was generated with each assay series. After a 42 hours incubation at 37° C. (about 2 cell doublings) 1 μCi/well of [^3 H] thymidine was added and the incubation continued for 6 hours at which time the cells were harvested and counted to assess [^3 H] thymidine incorporation as a measure of cell proliferation.

EBP [1] = target: T1, EBP (Homo sapiens, UniProt P19235); test: DPDPB crosslinking: dimerization of EBP by EPO mimetic peptides (SDS-PAGE); assay type: biochemical; settings: 22 μM EBP, 1.1 mM DPDPB, 400 μM peptide, visual detection of dimer product
T1 construct: one encoding amino acids 1-225 of the extracellular domain of the mature hEPOR; made in house; host or cells: E. coli BL21(DE3)pLysS (plasmid pSAM3)
T1 sequence (P19235 25-249): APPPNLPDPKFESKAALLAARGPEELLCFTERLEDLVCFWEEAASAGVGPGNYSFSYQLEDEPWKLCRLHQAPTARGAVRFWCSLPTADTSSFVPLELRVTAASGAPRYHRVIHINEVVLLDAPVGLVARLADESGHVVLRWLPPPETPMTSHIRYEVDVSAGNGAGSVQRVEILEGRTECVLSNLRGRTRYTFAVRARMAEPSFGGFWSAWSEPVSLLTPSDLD
Method: Peptide-mediated receptor dimerization was stabilized for study using the non-water soluble homobifunctional sulfhydryl reactive cross linking reagent DPDPB (1,4-di-[2'-pyridyldithio)propionamido]butane, Pierce Chemical Co., Rockford, Ill.). EBP (22 μM) was incubated in the presence or absence of DPDPB (1.1 mM), 400 μM peptide ligand, 75 μl of PBS, pH 7.5 with all reactions and controls containing a final concentration of 4.4% DMSO and 0.007% TFA. These samples were incubated for 4 hours at room temperature and stored at 4° C. for 12 hours before analysis under reducing and non-reducing conditions by SDS-PAGE (10-20% gradient gels, Integrated Separations Systems, Natick, Mass.).

EBP-Ig [2] = target: T2, EBP-Ig (Homo sapiens, UniProt P19235); test: Fluorescence polarization competitive binding assay with fluorescein-RWJ 61718; settings: for IC50: read-out: FP/EBP-Ig IC50; for competition in FP/EBP-Ig assay: fluorescein-RWJ 61718 as labelled ligand, result in words
T2 construct: one encoding amino acids 1-225 of the extracellular domain of the mature hEPOR; made in house
T2 sequence (P19235 with tags, fused parts or gaps limits assumed): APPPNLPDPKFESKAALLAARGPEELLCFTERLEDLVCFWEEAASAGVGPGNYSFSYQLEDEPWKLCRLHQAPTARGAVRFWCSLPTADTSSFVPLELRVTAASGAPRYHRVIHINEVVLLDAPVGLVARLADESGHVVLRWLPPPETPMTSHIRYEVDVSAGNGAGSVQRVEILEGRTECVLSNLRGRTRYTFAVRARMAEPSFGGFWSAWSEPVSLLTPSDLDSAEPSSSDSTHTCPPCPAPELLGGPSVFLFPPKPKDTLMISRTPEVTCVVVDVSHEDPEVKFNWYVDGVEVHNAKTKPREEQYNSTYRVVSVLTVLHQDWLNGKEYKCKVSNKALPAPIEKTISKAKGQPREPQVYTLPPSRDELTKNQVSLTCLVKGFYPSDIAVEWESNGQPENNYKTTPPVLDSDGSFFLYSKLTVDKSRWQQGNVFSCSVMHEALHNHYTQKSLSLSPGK
Method: Fluorescence polarization (FP) is a useful technique capable of providing information on changes in molecular volume which occur upon the association or dissociation of two molecules. […] Conversely, if a non-fluorescent competitor molecule is added to this complex then a decrease in the fluorescence polarization value can be anticipated [Checovich, W. J., Bolger, R. E. & Burke, T. Fluorescence polarization-a new tool for cell and molecular biology, Nature 375, 254-256 (1995)]. RWJ 61718 was labeled with a fluorescein reporter group by treating 10 mg of peptide solubilized in 3 ml of PBS with 17.9 mg of fluorescein isothiocyanate dissolved in 1 ml DMSO (added in 100 μl aliquots). RWJ 61718 contained a single amine (N-terminus) and 1:1 label incorporation was expected. This mixture was placed on ice and the solution cleared by the addition of 1.0 ml of DMSO. Following a 34 hour incubation at 4° C., fluorescein labeled RWJ 61718 was isolated by reverse phase HPLC. The entire reaction mixture was diluted 1:2 with 0.1% trifluoroacetic acid (TFA; mobile phase A), pumped onto a C-18 reversed phase preparative column (Vydac #218tp54) at 8 ml/min and eluted with a 90 minute linear gradient of 0-100% mobile phase B (acetonitrile containing 0.7% TFA). Fractions containing fluorescent products (excitation wavelength 488 nm, emission wavelength 530 nm) at 530 nm were collected and lyophilized. A highly fluorescent peak eluting at near 60 minutes (ca 60% mobile phase B) was determined to be the desired product by monitoring FP changes in the presence of EBP-Ig.
A competitive FP assay using fluorescein labeled RWJ 61718 as the receptor ligand was established as follows using a Fluorescence Polarization Microtiter System (Jolley Consulting). Test peptides at variable concentrations and EBP-Ig (3S mutant, 0.025 mg/ml) were incubated for 1 hour at room temperature in 90 μl PBS and dispensed into a Dynatech Microfluor plate 96 well plate. Fluorescein-RWJ 61718 was added to each well (10 μl in 0.1% TFA) to a final concentration of 2.5 μM followed by an additional 1 hr incubation at room temperate in the dark. Values for milliPolarization (mP) were obtained at an instrument voltage setting of 8.0. Baseline peptide values were determined from wells which contained only labeled peptide and PBS. Total mP readings were determined in test wells which contained labeled peptide and EBP-Ig only. Peptide concentration dependent competitive reduction in mP values were determined and an IC50 value calculated.

EBP-Ig [3] = target: T2, EBP-Ig; test: EBP-Ig Flash Plate EPO radioligand binding assay; settings: for IC50: read-out: EBP-Ig Binding IC 50; for competition in EBP-Ig binding assay: result in words
Excerpt: The interaction of biotin and strepavidin is frequently employed to capture and effectively immobilize reagents useful in assay protocols and has been employed here as a simple method to capture and immobilize EBP-Ig. EBP-Ig is initially randomly modified with an amine reactive derivative of biotin to produce biotinylated-EBP-Ig. Use of strepavidin coated plates allows the capture of the biotinylated EBP-Ig on the surface of a scintillant impregnated coated well (Flash plates, NEN-DuPont). […] The amount of light produced was quantified to estimate the amount of ligand binding. The specific assay format was suitable for the multi-well plate capacity of a Packard TopCount Microplate Scintillation counter.
Biotinylated EBP-Ig (3S mutant) was prepared as follows. EBP-Ig (3 ml, OD280 2.9) was exchanged into 50 mM sodium bicarbonate, pH 8.5 using a Centriprep 10 ultrafiltration device. […] 10 μl of a 4 mg/ml solution of NHS-LC-Biotin (Pierce) was added and the reaction mixture placed on ice in the dark for two hours. Unreacted biotin was removed by exchange of the reaction buffer into PBS in a Centriprep 10 device and the protein reagent aliquoted and stored at […].
All wells were adjusted to a final DMSO concentration of 5%. […] After all additions were made, the plate was covered with an adhesive top seal and placed in the dark at room temperature overnight. The next day all liquid was aspirated from the wells to limit analyte dependent quench of the signal, and the plates were counted on a Packard TOPCOUNT Microplate Scintillation Counter. […] Corrected total binding (CTB) was calculated as: TB-NSB=CTB. The concentration of test peptide which reduced CTB to 50% was reported as the IC50.

EBP [4] = target: T1, EBP; test: EBP bead competitive binding assay vs [125I]EPO; settings: for competition in EBP-bead binding assay: result in words
Excerpt: EBP as produced by the above method contains one free sulfhydryl group which can be modified without affecting the solution phase binding of ligand. In order to immobilize the EBP for equilibrium binding analysis this observation was extended for the covalent attachment of EBP to agarose beads. The iodoacetyl activation chemistry of Sulfolink beads (Pierce Chemical Co, Rockford, Ill.) is specific for free thiols and assures that the linkage is not easily reversible. EBP-Sulfolink beads were made as follows: Sulfolink gel suspension (10 ml) was mixed with coupling buffer (40 ml: 50 mM TRIS, pH 8.3, 5 mM EDTA) and the gel was allowed to settle. The supernatant was removed and the EBP (0.3-1 mg/ml in coupling buffer) to be bound was added directly to the washed beads. The mixture was rocked gently for 30 minutes at room temperature, and the beads were allowed to settle for 1 hour at room temperature. The supernatant was removed and saved, and the beads were washed twice with 20 ml of coupling buffer. The washes were retained as well. The beads were then treated with 20 ml of 0.05 M cysteine for 30 minutes at room temperature to block unbound sites. Finally, the beads were washed with 50 ml of 1 M NaCl, then with 30 ml of PBS, and resuspended in 20 ml of PBS and stored at 4° C. The amount of EBP which was covalently bound to the beads was determined by comparing the OD280 of the original EBP solution to the total OD280 recovered in the reaction supernatant and the two 20 ml washes. Typically, 40-60% of the applied EBP remains associated with the beads.
Competitive binding assays of peptides were performed as described herein. Individual peptides were dissolved in DMSO to prepare a stock solution of 1 mM. […] Initial assay points with no added peptide were included in each assay to determine total binding. Binding mixtures were incubated overnight at room temperature with gentle rocking. The beads were then collected using Micro-columns (Isolab, Inc.) and washed with 3 mL of wash buffer (PBS/5% BSA). The columns containing the washed beads were placed in 12×75 mm glass tubes and bound radioactivity levels determined in a gamma counter.

[5] = EBP-Ig (3S mutant) 0.025 mg/ml, fluorescein-RWJ 61718 2.5 μM
[6] = 0.5 nM [125I]EPO, 1 μg/ml biotinylated EBP-Ig (3S mutant), 5% DMSO, overnight
[7] = 0.5 nM [125I]EPO, 2.5% DMSO, overnight, room temperature

| Compound | EC50 (FDC-P1/hER cells) [µM] | EPO mimetic activity / proliferative capacity (FDC-P1/hER cells) | DPDPB cross-linking (EBP [1]) | IC50 (EBP-Ig [2]; [5]) [µM] | competition in FP/EBP-Ig assay (EBP-Ig [2]) | IC50 (EBP-Ig [3]; [6]) [µM] | competition in EBP-Ig binding assay (EBP-Ig [3]) | IC50 (EBP [4]; [7]) [µM] | competition in EBP-bead binding assay (EBP [4]) | FDCP-P1-hER ED50 (FDC-P1/hER cells) | DPDPB cross-linking (EBP [1]; listed as 61177) | FP/EBP-Ig IC50 (EBP-Ig [2]; [5]) | IC50 (EBP-Ig [3]) [µM] | IC50 (EBP [4]) [µM] |
| --- | --- | --- | --- | --- | --- | --- | --- | --- | --- | --- | --- | --- | --- | --- |
| GGTYSCHFGPLTWVCKPQGG [RWJ 61233] | 0.1 | functions as an EPO mimetic | positive | 0.5 | positive | 1 | competes at similar levels in both the EBP-bead and EBP-Ig binding assays | 5 | competes at similar levels in both the EBP-bead and EBP-Ig binding assays | – | – | – | – | – |
| GGLYACHMGPMTWVCQPLRG (GGKYACHMGPMTWVCQPKRG) [RWJ 61718] | 0.1 | with proliferative capacity | positive | 0.35 | – | 0.1 | – | 3 | – | – | – | – | – | – |
| CC(C)C[C@@H]1NC(=O)[C@@H]2CCCN2C(=O)CNC(=O)[C@H](Cc2ccccc2)NC(=O)[C@H](Cc2cnc[nH]2)NC(=O)[C@@H](NC(=O)[C@@H](N)CO)CSSC[C@@H](C(=O)N[C@@H](CCCCN)C(N)=O)NC(=O)[C@H](C(C)C)NC(=O)[C@H](Cc2c[nH]c3ccccc23)NC(=O)[C@H]([C@@H](C)O)NC1=O [RWJ 61177] (H-SCHFGPLTWVCK-NH2; disulfide 2-11) | – | without proliferative capacity | deficient in crosslinking ability | – | inactive | – | – | – | – | Inactive | negative | Inactive | – | – |
| GGTXSCHFGPLTWVCKPQGG (GGT[Tyr(3,5-Br2)]SCHFGPLTWVCKPQGG-NH2; disulfide 6-15 (inferred)) [RWJ 62021, X = 3,5-dibromo-tyr] | – | without proliferative potential | some crosslinking potential | 5 | very efficient competitors | 400 | very poorly | 150 | very poorly | Inactive | – | – | – | – |
| CC(C)C[C@@H]1NC(=O)[C@@H]2CCCN2C(=O)CNC(=O)[C@H](Cc2ccccc2)NC(=O)[C@H](Cc2c[nH]cn2)NC(=O)[C@@H](NC(=O)[C@@H](N)CO)CSSC[C@@H](C(=O)N[C@@H](CCCCN)C(N)=O)NC(=O)[C@H](C(C)C)NC(=O)[C@H](Cc2c[nH]c3ccccc23)NC(=O)[C@H]([C@@H](C)O)NC1=O [RWJ 61177] (H-SCHFGPLTWVCK-NH2; disulfide 2-11) | – | – | – | – | – | – | – | – | – | – | – | – | 500 | 90 |
| GGTYSCHFGPLTWVCKPQ [RWJ 61596] | 0.08 | – | – | – | – | – | – | 8 | – | – | – | – | – | – |
| YSCHFGPLTWVCK (YSCHFGPLYWVCK) [RWJ 61279] | 8 | with proliferative capacity | positive | – | – | – | – | 70 | – | – | – | – | – | – |
